# In patent US20190256600A1 (ANAPTYSBIO, published 2019):
# B1: exemplary anti-PD-1 antibody (having heavy and light chains as set forth in SEQ ID NOs: 1 & 2, respectively) (antibody, human IgG4 S228P, kappa, V domains shown)
# VH: EVQLLESGGGLVQPGGSLRLSCAASGFTFSSYDMSWVRQAPGKGLEWVSTISGGGSYTYYQDSVKGRFTISRDNSKNTLYLQMNSLRAEDTAVYYCASPYYAMDYWGQGTTVTVSS
# VL: DIQLTQSPSFLSAYVGDRVTITCKASQDVGTAVAWYQQKPGKAPKLLIYWASTLHTGVPSRFSGSGSGTEFTLTISSLQPEDFATYYCQHYSSYPWTFGQGTKLEIKR
# modifications: occupied N-glycosylation site at asparagine residue 293 of SEQ ID NO:1
# notes: Humanized IgG4 (human IGHG4*01) with kappa light chain (IGKC*01); also called exemplary humanized monoclonal anti-PD-1 antibody; anti-PD-1 mAb
# Columns and labels:
# [1] = target: T1, full length native human PD-1 (on stably transfected CHO-K1 cells; native on human PBMCs) (human, UniProt Q15116 25-288); experiment: flow cytometry competition on human PD-1 CHO-K1 cells; competitor PD-L2-mFc-DyL650
# T1 construct: whole, on cells; The same entry is used for the CHO-K1 transfectants and for PD-1 natively expressed on human PBMCs; also called cell-surface human PD-1; human PD-1 CHO-K1 cells
# Procedure: (§1) In these studies, human PD-L1 and PD-L2 mouse IgG1 Fc fusion proteins were expressed, purified, and labeled with DyL650. The dose-response of binding of both PD-L1 and PD-L2 to PD-1 CHO-K1 cells was determined. To quantify blocking of ligand binding to PD-1 CHO-K1 cells, exemplary anti-PD-1 antibody or IgG4 control antibody in a 3-fold dilution series was pre-mixed with PD-L1-mFc-DyL650 or PD-L2-mFc-DyL650. The mixture was added to human PD-1 CHO-K1 cells (3E5 cells) and incubated at 4° C. Cells were washed once and re-suspended in the presence of propidium iodide and DyL650-PD-L1 or DyL650-PD-L2. Binding was analyzed on a BD FACSArray (BD Bioscience), excluding dead cells.
# [2] = target: T2, dimeric cynomolgus monkey PD-1 fusion protein (fused with mouse IgG2a Fc) (cynomolgus monkey; mouse, UniProt B0LAJ3 25-170); experiment: SPR (Biacore T200); cynomolgus monkey against human PD-1 fusion
# T2 construct: Soluble dimeric analyte in SPR; also called cynomolgus PD-1; soluble PD-1 fusion
# Procedure: (§2) SPR analyses were carried out using a Biacore T200 system and kinetic constants were determined using Biacore T200 Evaluation software. […] GE anti-human IgG (Fc-specific) was immobilized on a Biacore CM5 chip. An exemplary anti-PD-1 antibody (having heavy and light chains as set forth in SEQ ID NOs: 1 & 2, respectively) was then captured onto this surface […]. Next, dimeric human or cynomolgus monkey PD-1 fusion proteins (fused with mouse IgG2a Fc) in a two-fold serial dilution series were flowed over the captured exemplary antibody and dissociation was monitored. Capture and analyte binding were performed in HBS-EP+ buffer. Chips were regenerated between each run using 3 M MgCl₂. The resulting sensorgrams were fitted globally using a 1:1 binding model to calculate on- and off-rates (kassoc and kdissoc, respectively) and dissociation constants as a measure of overall affinity (KD).
# [3] = target: T1, full length native human PD-1 (on …); experiment: receptor occupancy by flow cytometry on human PBMCs (CD3+/IgG4+ cells, PE-labeled anti-IgG4), pre-incubation with a dilution series of the antibody [panel Human]
# From the text: (§3) For these studies, PBMCs from healthy human donors or cynomolgus monkeys were used. Human PBMCs were isolated from buffy coats obtained from the Indiana Blood Center and cynomolgus monkey PBMCs were isolated from peripheral blood collected aseptically into sodium heparin obtained from Worldwide Primates, Inc. In both cases, separation was by Ficoll using Ficoll-Paque 1.077 and cryopreserved for later use.
# (§4) On the day of the experiments, the cryopreserved cells were thawed and the cell concentration was adjusted to 2E6 cells/ml prior to resting overnight at 37° C. in a humidified CO₂ incubator. Cells were then pelleted and re-suspended in 1 ml of media and recounted. The cell concentration was adjusted to 4E5 cells/150 μl of media. Human AB Serum (40 μl/ml) was added to block Fc receptors. After centrifugation, the cells were incubated with exemplary anti-PD-1 antibody at 4° C. PBMCs were then washed three times before being split into two conditions. One set of cells was incubated with exemplary anti-PD-1 antibody and the other set with IgG4 for 30 minutes at 4° C. The PBMCs were then washed four times prior to being stained with FITC-labeled anti-CD3 and PE-labeled anti-IgG4 antibodies. […] The number of CD3+/IgG4+ cells was determined for each parameter and the percentage of occupancy for the exemplary anti-PD-1 antibody was determined as follows: […]
# [4] = target: T3, full length native cynomolgus monkey PD-1 (on stably transfected CHO-K1 cells); native on cynomolgus monkey … (cynomolgus monkey, UniProt B0LAJ3 25-288); experiment: flow cytometry on CHO-K1 cells stably expressing full length cynomolgus monkey PD-1; PE anti-human IgG4 detection
# T3 construct: The same entry is used for the CHO-K1 transfectants and for PD-1 natively expressed on cynomolgus monkey PBMCs; also called cell-surface cynomolgus monkey PD-1
# Procedure: (§5) Flow cytometry studies were performed with CHO-K1 cell line clones in which either full length native human or cynomolgus monkey PD-1 was stably transfected. An exemplary anti-PD-1 antibody (having heavy and light chains as set forth in SEQ ID NOs: 1 & 2, respectively) was diluted in 3-fold dilutions. Dilutions of exemplary antibody were added to human or cynomolgus monkey PD-1 expressing CHO-K1 cells (1E5 cells) and incubated on ice. Cells were washed twice and incubated on ice with PE-conjugated mouse anti-human IgG4 to detect antibody binding. Cells were washed and resuspended in the presence of propidium iodide to exclude dead cells and fixed and analyzed for fluorescence on a BD FACSArray instrument (BD Biosciences). Data were analyzed for median fluorescence intensity, graphed, and curves fitted for EC₅₀ value calculation in GraphPad Prism (GraphPad Software, Inc.) using a non-linear (sigmoidal) regression analysis.
# [5] = target: T1, full length native human PD-1 (on …); experiment: flow cytometry competition on human PD-1 CHO-K1 cells; competitor PD-L1-mFc-DyL650
# Procedure: as §1
# [6] = target: T4, dimeric human PD-1 fusion protein (fused with mouse IgG2a Fc) (human; mouse, UniProt Q15116 25-167, limits assumed); experiment: SPR (Biacore T200); antibody captured on anti-human IgG Fc chip, dimeric PD-1-mouse IgG2a Fc as analyte, 1:1 model
# T4 construct: Soluble dimeric analyte in SPR; also called soluble PD-1 fusion; not shown: mouse IgG2a Fc
# Procedure: as §2
# [7] = target: T2, dimeric cynomolgus monkey PD-1 fusion …; experiment: as above
# Procedure: as §2
# [8] = target: T1, full length native human PD-1 (on …); experiment: flow cytometry on CHO-K1 cells stably expressing full length human PD-1; PE anti-human IgG4 detection
# Procedure: as §5
# [9] = target: T3, full length native cynomolgus monkey …; experiment: receptor occupancy by flow cytometry on cynomolgus monkey PBMCs (CD3+/IgG4+ cells, PE-labeled anti-IgG4), pre-incubation with a dilution series of the antibody [panel Cynomolgus monkey]
# From the text: as §3, §4
# T4 sequence (Q15116 25-167 limits assumed): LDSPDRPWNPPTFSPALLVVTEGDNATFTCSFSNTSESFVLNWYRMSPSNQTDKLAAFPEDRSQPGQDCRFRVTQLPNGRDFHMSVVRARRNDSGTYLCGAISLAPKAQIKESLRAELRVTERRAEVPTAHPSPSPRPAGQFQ
# T1 sequence (Q15116 25-288): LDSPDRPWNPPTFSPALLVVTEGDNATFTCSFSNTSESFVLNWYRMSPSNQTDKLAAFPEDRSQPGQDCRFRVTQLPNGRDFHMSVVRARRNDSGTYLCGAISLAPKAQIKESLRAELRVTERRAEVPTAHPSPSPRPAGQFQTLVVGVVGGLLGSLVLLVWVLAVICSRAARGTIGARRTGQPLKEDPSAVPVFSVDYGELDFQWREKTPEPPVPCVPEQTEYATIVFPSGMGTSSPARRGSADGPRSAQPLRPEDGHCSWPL
# T2 sequence (B0LAJ3 entry or part of it limits assumed): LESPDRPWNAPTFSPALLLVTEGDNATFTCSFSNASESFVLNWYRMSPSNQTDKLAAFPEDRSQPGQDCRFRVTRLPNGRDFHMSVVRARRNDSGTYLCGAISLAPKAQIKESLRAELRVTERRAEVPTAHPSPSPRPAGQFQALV
# T3 sequence (B0LAJ3 entry or part of it limits assumed): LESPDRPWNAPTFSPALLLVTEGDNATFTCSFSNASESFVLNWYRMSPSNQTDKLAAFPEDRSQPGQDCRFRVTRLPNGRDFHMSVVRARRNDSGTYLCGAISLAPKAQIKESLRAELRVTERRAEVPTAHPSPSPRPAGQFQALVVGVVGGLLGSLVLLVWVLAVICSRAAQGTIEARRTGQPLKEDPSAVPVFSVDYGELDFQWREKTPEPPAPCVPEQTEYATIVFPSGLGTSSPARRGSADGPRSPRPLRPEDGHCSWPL
binder,measurement,setting,value
B1,IC50,[1],1.5 nM
same,fold difference in KD against human PD-1,[2],< 2 fold
same,EC50 (read off the curve),[3],~0.2 µg/mL
same,EC50,[4],3.4 nM
same,IC50,[5],1.8 nM
same,Kd,[6],0.3 nM
same,koff,[6],0.00017 s⁻¹
same,kon,[6],570000 M⁻¹ s⁻¹
same,Kd,[7],0.53 nM
same,koff,[7],0.00023 s⁻¹
same,kon,[7],430000 M⁻¹ s⁻¹
same,EC50,[8],2 nM
same,EC50 (read off the curve),[9],~0.1 µg/mL
